Numbering of substitutions follows the chain as printed.
Key:
[1] = system: T1, His-FepR wt (Listeria monocytogenes EGD-e), ORF:2866136e; assay: EMSA; conditions: […] (25 mM Tris, pH 5.5), 0.15 mM BSA, 2.5 mM EDTA, 10% glycerol, 20 mM DTT, 5 min at 25 C
T1 sequence: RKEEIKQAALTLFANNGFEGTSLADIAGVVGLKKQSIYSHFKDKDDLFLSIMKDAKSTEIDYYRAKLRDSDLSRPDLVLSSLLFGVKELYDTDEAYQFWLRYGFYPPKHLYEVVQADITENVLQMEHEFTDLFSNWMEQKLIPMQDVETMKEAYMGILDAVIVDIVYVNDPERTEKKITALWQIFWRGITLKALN

[2] = system: T2, His-FepR L24F L23F (Listeria monocytogenes EGD-e), ORF:2866136e; assay: EMSA; conditions: […] (25 mM Tris, pH 5.5), 0.15 mM BSA, 2.5 mM EDTA, 10% glycerol, 20 mM DTT, 5 min at 25 C
T2 sequence: T1 sequence with L23F

Sequence: CATTCCACTCCTCTCACAAAAACTGACGAACGTTCGTAAGTCATTTTCTCATGAAAAAAATTCTTTGTCAACAAAAAAATCCACTCTTTTAAAAGAGTGGATTCATGGATTTATTTTTCTTCTAAAAATTCGCTAATCAATTCGTATGTC (double strand) [PfepR G-27T]
- binding [1]: no binding

Sequence: CATTCCACTCCTCTCACAAAAACTGACGACCGTTCGTAAGTCATTTTCTCATGAAAAAAATTCTTTGTCAACAAAAAAATCCACTCTTTTAAAAGAGTGGATTCATGGATTTATTTTTCTTCTAAAAATTCGCTAATCAATTCGTATGTC (double strand) [PfepR wt]
- binding [1]: binds
- binding [2]: no binding
